Source: publication PMC4115224, “Real-Time Interaction between TBP and the TATA Box of the Human Triosephosphate Isomerase Gene Promoter in the Norm and Pathology”

Experiments:
[1] = biological target: T1, TATA-binding protein (TBP) (human, UniProt P20226 1-339); test: stopped-flow FRET; kon (1.1 ± 0.1)e6 M-1 s-1; koff (2.8 ± 0.1)e-3 s-1; KA 3.7e8 M-1; 25 C; 25 C; 0.1 uM DNA duplex; TBP 0.1-2 uM (T allele) or 0.4-4 uM (G allele); buffer, salt and pH not given in the material; conditions: protein: recombinant; label: Cy3/Cy5 FRET pair at the duplex ends
[2] = biological target: T1, TATA-binding protein (TBP); test: stopped-flow FRET; kon (0.2 ± 0.1)e6 M-1 s-1; koff (8.9 ± 1.2)e-2 s-1; KA 2.3e6 M-1; 25 C; 25 C; 0.1 uM DNA duplex; TBP 0.1-2 uM (T allele) or 0.4-4 uM (G allele); buffer, salt and pH not given in the material; conditions: protein: recombinant; label: Cy3/Cy5 FRET pair at the duplex ends

T1 sequence (P20226 whole entry): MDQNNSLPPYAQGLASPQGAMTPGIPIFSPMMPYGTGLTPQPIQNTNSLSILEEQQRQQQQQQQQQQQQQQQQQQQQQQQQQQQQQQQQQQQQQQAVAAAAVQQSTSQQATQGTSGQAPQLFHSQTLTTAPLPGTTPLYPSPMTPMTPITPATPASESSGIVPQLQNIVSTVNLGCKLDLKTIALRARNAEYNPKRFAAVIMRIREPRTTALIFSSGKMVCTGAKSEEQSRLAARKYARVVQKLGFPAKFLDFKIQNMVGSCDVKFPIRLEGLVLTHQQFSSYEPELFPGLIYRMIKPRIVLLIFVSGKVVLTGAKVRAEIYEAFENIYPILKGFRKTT

B1: TPI TATA box, wild type (T allele) (dsDNA)
DNA 1: GCTCTATATAAGTGG
DNA 2: CCACTTATATAGAGC
- Kd [1]: 2.7 nM

B2: TPI TATA box, -24T>G SNP (G allele) (dsDNA)
DNA 1: GCTCTATAGAAGTGG
DNA 2: CCACTTCTATAGAGC
- Kd [2]: 400 nM
